T1: GST-BRM (Arabidopsis, UniProt Q6EVK6 1-976)
T1 construct: The pull-down methods call it GST-BRM; also called BRAHMA; source: E. coli BL21 (DE3), purified (glutathione resin); not shown: GST, N-terminal, kept
T1 sequence (looked up): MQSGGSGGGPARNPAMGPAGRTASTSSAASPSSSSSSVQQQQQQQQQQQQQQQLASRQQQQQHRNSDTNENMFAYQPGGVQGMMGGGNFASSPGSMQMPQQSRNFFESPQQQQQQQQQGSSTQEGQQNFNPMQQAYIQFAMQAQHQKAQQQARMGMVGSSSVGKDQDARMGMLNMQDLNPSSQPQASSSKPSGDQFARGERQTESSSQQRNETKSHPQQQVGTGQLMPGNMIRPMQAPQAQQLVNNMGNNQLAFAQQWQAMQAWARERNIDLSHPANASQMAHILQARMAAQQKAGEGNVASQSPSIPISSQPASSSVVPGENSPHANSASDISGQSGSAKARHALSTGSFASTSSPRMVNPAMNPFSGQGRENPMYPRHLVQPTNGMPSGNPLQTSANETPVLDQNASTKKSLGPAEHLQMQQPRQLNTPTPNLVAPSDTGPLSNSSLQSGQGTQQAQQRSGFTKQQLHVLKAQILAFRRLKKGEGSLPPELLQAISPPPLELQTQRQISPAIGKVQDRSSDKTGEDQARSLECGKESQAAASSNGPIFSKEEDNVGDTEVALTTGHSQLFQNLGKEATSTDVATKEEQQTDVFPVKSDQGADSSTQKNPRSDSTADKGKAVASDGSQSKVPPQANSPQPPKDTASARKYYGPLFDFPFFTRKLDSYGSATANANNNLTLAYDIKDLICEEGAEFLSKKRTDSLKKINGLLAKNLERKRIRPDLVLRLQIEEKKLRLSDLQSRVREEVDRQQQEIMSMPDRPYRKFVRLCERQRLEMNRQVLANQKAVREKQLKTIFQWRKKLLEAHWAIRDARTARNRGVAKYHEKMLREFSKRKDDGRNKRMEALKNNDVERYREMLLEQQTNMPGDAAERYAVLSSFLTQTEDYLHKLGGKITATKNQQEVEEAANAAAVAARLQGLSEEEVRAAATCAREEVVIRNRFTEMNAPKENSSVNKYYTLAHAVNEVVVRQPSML

B1: GST-WUS (natural protein, Arabidopsis, UniProt Q9SB92 1-292, looked up)
chain: MEPPQHQHHHHQADQESGNNNNNKSGSGGYTCRQTSTRWTPTTEQIKILKELYYNNAIRSPTADQIQKITARLRQFGKIEGKNVFYWFQNHKARERQKKRFNGTNMTTPSSSPNSVMMAANDHYHPLLHHHHGVPMQRPANSVNVKLNQDHHLYHHNKPYPSFNNGNLNHASSGTECGVVNASNGYMSSHVYGSMEQDCSMNYNNVGGGWANMDHHYSSAPYNFFDRAKPLFGLEGHQEEEECGGDAYLEHRRTLPLFPMHGEDHINGGSGAIWKYGQSEVRPCASLELRLN
notes: also called WUSCHEL; glutathione-S-transferase (GST)-WUS; source: E. coli BL21 (DE3), purified (glutathione resin); for EMSA also size-exclusion chromatography; not shown: GST, N-terminal, kept
B2: 8His-MBP-DRN (natural protein)
chain: not shown
notes: also called DORNRÖSCHEN; source: E. coli BL21 (DE3), purified (Ni resin); for EMSA also size-exclusion chromatography; not shown: 8His, N-terminal, kept; MBP, N-terminal, kept

The target in the data set “8His-MBP-DRN” is B2. Briefly: native gel or EMSA; EMSA with biotin-labelled CLV3 promoter probe (−1,090 to −1,064); GST-WUS alone or with 8His-MBP-DRN; super-shift. As to conditions: both partners purified.
8His-MBP-DRN, sequence (Q9SAD4 whole entry): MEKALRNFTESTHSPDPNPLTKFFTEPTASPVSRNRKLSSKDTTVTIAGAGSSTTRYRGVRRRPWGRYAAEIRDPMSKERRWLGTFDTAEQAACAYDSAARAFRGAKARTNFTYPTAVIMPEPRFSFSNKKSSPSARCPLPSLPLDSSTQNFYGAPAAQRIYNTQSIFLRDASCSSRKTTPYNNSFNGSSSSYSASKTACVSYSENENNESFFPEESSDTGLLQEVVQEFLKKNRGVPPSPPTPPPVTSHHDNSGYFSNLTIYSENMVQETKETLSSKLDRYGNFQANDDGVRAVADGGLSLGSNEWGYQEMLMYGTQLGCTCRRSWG
Data set [1] deals with the molecule itself. Briefly: pull-down; competition: agarose beads with 8His-MBP-WUS incubated with soluble GST-WUS for 6 h before soluble 8His-MBP-DRN was added; binding group without DRN.
The target in a further data set is T1, GST-BRM. Briefly: pull-down; beads loaded with protein and soluble protein rotated at 4°C for 4 h in pull-down buffer (200 mM NaCl, 1 mM EDTA, 20 mM Tris-HCl, 0.15 mM PMSF, pH 8.0); blots with anti-GST and anti-His. To be noted: both partners purified.

For B1, the binding result (in the data set with 8His-MBP-DRN; in data set [1]) was “binds” each time. Consider B2, for which the binding result with GST-BRM is “binds”.

The values above are taken from PMC11548754, “DRN facilitates WUS transcriptional regulatory activity by chromatin remodeling to regulate shoot stem cell homeostasis in Arabidopsis” (PLOS Biology, 2024).
